Legend:
[1] = target: T1, truncated 70 kDa form of E-cadherin (p70), endogenous, from DLD1 cells (human, UniProt P12830 463-882, Ser/Thr residues found to be single O-mannosylated (mass spectrometry of AT1636-precipitated p70)); experiment: immunoprecipitation from DLD1 lysate, western blot, densitometry
T1 construct: range 463-C-terminus; also called p70 E-cadherin; 70 kDa protein
T1 sequence (looked up): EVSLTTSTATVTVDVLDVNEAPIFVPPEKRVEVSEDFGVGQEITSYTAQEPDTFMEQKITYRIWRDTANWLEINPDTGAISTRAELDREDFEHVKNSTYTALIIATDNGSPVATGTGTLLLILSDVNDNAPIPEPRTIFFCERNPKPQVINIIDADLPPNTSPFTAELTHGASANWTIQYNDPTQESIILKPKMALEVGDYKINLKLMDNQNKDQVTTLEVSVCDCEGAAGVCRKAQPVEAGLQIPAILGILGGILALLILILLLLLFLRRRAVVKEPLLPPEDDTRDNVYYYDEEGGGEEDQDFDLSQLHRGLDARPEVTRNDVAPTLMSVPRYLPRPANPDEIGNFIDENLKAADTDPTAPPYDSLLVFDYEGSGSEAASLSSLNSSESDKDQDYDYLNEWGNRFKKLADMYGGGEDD
Procedure: The specific binding of AT1636 to p70 E-cadherin was confirmed by western blot. AT1636 reactivity was compared to the commercially available EP700Y (Abcam, rabbit antibody) and a mouse antibody specific for the cytoplasmic domain of E-cadherin (clone 36/E, BD Biosciences). […] The E-cadherin antibody immunoprecipitation was performed from DLD1 cells with equal amounts of lysate (10 mg) and antibodies (2,5 μg). Input (40 μg) and IP samples (all) were run on SDS-PAGE and transferred to PVDF membrane (Bio-Rad) for immunoblotting. Using the antibody binding the intracellular domain of E-cadherin as well as the EP700Y antibody, the full length (120 kDa) E-cadherin as well as the 70 kDa protein were immunoprecipitated, while AT1636 mainly immunoprecipitated the 70 kDa protein (FIG. 2b). Thus AT1636 preferentially binds p70 over full length E-cadherin as shown by the enrichment for p70 over full length E-cadherin. Upon densitometric quantification of the signals, we find a 7-fold enrichment of p70 over full length in the AT1636 IP, compared to the EP700Y IP.

[2] = target: T2, full length E-cadherin (about 120 kDa), on human cells or from their lysate (human, UniProt P12830 155-882, O-mannosylated in cells that express TMTC3, as the filing describes); experiment: flow cytometry on DLD1 cells with TMTC3 shRNA against scrambled shRNA control
T2 construct: whole, on cells; also called CDH1; CD324
T2 sequence (looked up): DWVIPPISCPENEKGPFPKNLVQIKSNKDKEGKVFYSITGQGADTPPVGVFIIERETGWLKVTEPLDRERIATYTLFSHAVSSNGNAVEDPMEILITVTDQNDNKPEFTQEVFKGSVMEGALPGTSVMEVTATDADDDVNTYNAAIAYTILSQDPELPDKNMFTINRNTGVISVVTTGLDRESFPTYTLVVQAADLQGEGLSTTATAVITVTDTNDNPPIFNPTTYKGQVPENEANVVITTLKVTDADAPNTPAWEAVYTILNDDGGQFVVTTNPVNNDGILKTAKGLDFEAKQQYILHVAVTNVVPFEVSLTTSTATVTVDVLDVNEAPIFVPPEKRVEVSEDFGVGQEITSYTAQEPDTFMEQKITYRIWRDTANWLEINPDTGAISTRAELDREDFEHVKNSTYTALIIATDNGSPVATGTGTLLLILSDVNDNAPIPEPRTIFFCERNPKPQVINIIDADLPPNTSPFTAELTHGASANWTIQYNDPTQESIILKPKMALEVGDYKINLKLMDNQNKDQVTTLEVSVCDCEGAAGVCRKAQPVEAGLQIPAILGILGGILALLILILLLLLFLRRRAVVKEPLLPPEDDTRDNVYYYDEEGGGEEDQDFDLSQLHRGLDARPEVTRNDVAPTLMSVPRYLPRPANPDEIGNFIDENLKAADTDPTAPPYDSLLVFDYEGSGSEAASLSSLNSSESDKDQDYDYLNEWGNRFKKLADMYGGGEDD

[3] = target: T3, mouse E-cadherin on CMT93 cells (mouse, UniProt P09803 157-884); experiment: flow cytometry on mouse CMT93 cells
T3 construct: whole, on cells
T3 sequence (looked up): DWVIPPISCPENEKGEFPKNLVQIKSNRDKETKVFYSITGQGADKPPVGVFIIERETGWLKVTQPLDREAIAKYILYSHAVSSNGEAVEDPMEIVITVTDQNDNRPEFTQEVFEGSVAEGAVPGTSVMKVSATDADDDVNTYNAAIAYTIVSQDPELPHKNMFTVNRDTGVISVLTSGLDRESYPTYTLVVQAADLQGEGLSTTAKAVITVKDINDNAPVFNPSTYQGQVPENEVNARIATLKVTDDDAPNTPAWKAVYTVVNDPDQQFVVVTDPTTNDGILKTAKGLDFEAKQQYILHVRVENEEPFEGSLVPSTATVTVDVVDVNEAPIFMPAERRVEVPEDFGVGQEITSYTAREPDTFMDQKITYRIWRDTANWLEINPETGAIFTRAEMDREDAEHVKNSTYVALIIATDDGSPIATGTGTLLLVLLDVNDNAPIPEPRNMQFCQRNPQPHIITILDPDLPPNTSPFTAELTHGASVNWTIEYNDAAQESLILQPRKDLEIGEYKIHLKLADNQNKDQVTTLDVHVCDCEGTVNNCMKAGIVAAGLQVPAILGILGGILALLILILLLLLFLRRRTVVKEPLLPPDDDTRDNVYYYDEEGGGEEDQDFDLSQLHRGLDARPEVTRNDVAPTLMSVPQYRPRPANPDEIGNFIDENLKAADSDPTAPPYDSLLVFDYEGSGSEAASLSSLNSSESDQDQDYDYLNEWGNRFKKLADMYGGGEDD

[4] = target: T4, recombinant soluble p70 E-cadherin mouse-Fc fusion protein (human, UniProt P12830 463-709); experiment: ELISA on captured p70 E-cadherin mFc
T4 construct: range 463-end of the extracellular domain; Made in Expi293 or CHO cells; also called 70 kDa; human p70 E-cadherin-mouseFc-biotin; not shown: FLAG tag on a mouse Fc-tail equipped with a sortase and HIS tag
T4 sequence (looked up): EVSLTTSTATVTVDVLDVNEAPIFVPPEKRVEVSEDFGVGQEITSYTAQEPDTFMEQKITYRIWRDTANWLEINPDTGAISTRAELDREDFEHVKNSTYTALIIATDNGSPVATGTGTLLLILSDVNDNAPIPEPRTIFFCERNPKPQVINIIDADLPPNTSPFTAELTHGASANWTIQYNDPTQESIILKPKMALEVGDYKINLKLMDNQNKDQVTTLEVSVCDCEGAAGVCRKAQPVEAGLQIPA
Procedure: (§1) TABLE 4 Calculation of the fold-increase in binding of the AT1636 variants compared to the parental AT1636 wild-type antibody to the Full-Length and p70 E-cadherin and the E-cadherin D3 mutated protein. EC₅₀ values were determined using Prism software. Fold increase in binding compared to AT1636 wild-type antibody
(§2) Recombinant E-cadherin mFc proteins were captured on 96-well plates (Costar) using goat-anti-mouse IgG Fcy antibodies (Jackson). […] Bound antibodies were visualized using a TMB substrate (Sigma) and the reaction was stopped with H₂SO₄(Merck) and quantified by OD450 measurement using an Envision plate reader (Perkin Elmer). As shown in FIG. 7b (two left panels), similar increased binding of AT1636-YN and -IYN antibody variants in comparison to AT1636 antibody was observed by ELISA to full length E-cadherin and p70. […] Here SC10.17, a humanized EC1 domain specific E-cadherin antibody binds full length E-cadherin but not the p70 truncated variant. Of note, all tested antibodies AT1636 variants, as well as AT1636 wild type, bind the truncated 70 kDa form of E-cadherin better than full length E-cadherin.

[5] = target: T5, recombinant soluble full length E-cadherin (without transmembrane and intracellular domains) mouse-Fc fusion … (human, UniProt P12830 155-709); experiment: ELISA on captured full length E-cadherin mFc
T5 construct: extracellular domain; Made in Expi293 or CHO cells; A C-tag-only version is also described; the ELISA used the mFc proteins; also called E-cadherin mFc; not shown: FLAG tag on a mouse Fc-tail equipped with a sortase and HIS tag
T5 sequence (looked up): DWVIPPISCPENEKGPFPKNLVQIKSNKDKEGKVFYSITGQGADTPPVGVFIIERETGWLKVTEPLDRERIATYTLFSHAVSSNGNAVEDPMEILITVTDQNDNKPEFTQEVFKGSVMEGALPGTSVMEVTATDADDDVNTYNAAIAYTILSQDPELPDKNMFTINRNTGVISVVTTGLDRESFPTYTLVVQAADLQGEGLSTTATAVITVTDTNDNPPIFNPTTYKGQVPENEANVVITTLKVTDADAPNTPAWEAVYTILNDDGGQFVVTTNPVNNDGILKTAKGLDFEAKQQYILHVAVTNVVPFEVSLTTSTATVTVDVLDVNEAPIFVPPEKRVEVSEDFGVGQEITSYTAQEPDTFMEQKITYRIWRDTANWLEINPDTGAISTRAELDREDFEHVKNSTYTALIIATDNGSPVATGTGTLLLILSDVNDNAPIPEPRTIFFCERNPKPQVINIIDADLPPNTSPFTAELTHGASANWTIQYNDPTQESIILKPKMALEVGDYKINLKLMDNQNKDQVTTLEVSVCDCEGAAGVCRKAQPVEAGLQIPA
Procedure: as §1, §2

B1: AT1636 (antibody, V domains shown)
VH: EVQLVESGGGLVKPGGSLRLSCAASGFTFSNAWMNWVRQAPGKGLEWVGRIKSKIDGGTTEYTTPVKGRFTISRDDSKDTVYLHMKRLKTEDTAVYYCTPGVGANDPYYFDRWGQGVLVTVSS
VL: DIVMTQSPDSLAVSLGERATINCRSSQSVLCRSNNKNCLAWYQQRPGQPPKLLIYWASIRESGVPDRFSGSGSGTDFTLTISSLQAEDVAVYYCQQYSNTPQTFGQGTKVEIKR
notes: The original 7G02 antibody is IgG3; also called AT1636 wild-type; AT1636-wt
fold enrichment of p70 over full length E-cadherin in the IP, compared to the EP700Y IP [1]: 7 fold
fold reduction in binding after TMTC3 knock-down [2]: > 3 fold

B2: AT1636-YN (antibody, human IgG1, V domains shown)
VH: EVQLVESGGGLVKPGGSLRLSCAASGFTFSYAWMNWVRQAPGKGLEWVGRIKSKIDGGTTEYTTPVKGRFTISRDDSKDTVYLHMKRLKTEDTAVYYCTPGVGANNPYYFDRWGQGVLVTVSS
VL: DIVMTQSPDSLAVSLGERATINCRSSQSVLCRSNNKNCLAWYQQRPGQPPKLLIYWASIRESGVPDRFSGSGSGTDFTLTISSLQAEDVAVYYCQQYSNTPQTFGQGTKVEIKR
notes: also called -NY; AT1636-NY
binding result [3]: binds
fold increase in binding compared to AT1636 wild-type antibody (ratio of ELISA EC50 values) [4]: 56.5 fold
fold increase in binding compared to AT1636 wild-type antibody (ratio of ELISA EC50 values) [5]: 28.4 fold

B3: AT1636-IYN (antibody, human IgG1, V domains shown)
VH: EVQLVESGGGLVKPGGSLRLSCAASGFIFSYAWMNWVRQAPGKGLEWVGRIKSKIDGGTTEYTTPVKGRFTISRDDSKDTVYLHMKRLKTEDTAVYYCTPGVGANNPYYFDRWGQGVLVTVSS
VL: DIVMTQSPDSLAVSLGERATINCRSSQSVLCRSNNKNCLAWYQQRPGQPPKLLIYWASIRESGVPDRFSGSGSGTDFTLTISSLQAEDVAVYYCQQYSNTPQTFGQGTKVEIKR
binding result [3]: binds
fold increase in binding compared to AT1636 wild-type antibody (ratio of ELISA EC50 values) [4]: 67.1 fold
fold increase in binding compared to AT1636 wild-type antibody (ratio of ELISA EC50 values) [5]: 64.3 fold

B4: AT1636-N (antibody, human IgG1, V domains shown)
VH: EVQLVESGGGLVKPGGSLRLSCAASGFTFSNAWMNWVRQAPGKGLEWVGRIKSKIDGGTTEYTTPVKGRFTISRDDSKDTVYLHMKRLKTEDTAVYYCTPGVGANNPYYFDRWGQGVLVTVSS
VL: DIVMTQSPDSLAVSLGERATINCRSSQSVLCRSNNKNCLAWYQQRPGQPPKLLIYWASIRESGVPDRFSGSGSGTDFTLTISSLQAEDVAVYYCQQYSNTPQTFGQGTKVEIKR
notes: also called D112N
fold increase in binding compared to AT1636 wild-type antibody (ratio of ELISA EC50 values) [4]: 4.5 fold
fold increase in binding compared to AT1636 wild-type antibody (ratio of ELISA EC50 values) [5]: 6 fold

B5: AT1636-I (antibody, human IgG1, V domains shown)
VH: EVQLVESGGGLVKPGGSLRLSCAASGFIFSNAWMNWVRQAPGKGLEWVGRIKSKIDGGTTEYTTPVKGRFTISRDDSKDTVYLHMKRLKTEDTAVYYCTPGVGANDPYYFDRWGQGVLVTVSS
VL: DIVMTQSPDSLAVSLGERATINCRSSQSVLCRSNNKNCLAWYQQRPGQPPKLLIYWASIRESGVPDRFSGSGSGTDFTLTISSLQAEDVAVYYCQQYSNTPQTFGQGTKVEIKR
notes: also called T29I
fold increase in binding compared to AT1636 wild-type antibody (ratio of ELISA EC50 values) [4]: 2 fold
fold increase in binding compared to AT1636 wild-type antibody (ratio of ELISA EC50 values) [5]: 2.6 fold

B6: AT1636-Y (antibody, human IgG1, V domains shown)
VH: EVQLVESGGGLVKPGGSLRLSCAASGFTFSYAWMNWVRQAPGKGLEWVGRIKSKIDGGTTEYTTPVKGRFTISRDDSKDTVYLHMKRLKTEDTAVYYCTPGVGANDPYYFDRWGQGVLVTVSS
VL: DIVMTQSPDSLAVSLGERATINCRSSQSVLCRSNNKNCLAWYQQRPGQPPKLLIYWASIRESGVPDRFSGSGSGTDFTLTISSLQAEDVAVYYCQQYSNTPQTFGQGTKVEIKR
notes: also called N36Y
fold increase in binding compared to AT1636 wild-type antibody (ratio of ELISA EC50 values) [4]: 6.6 fold
fold increase in binding compared to AT1636 wild-type antibody (ratio of ELISA EC50 values) [5]: 6.5 fold

B7: AT1636-IYEN (antibody, human IgG1, V domains shown)
VH: EVQLVESGGGLVKPGGSLRLSCAASGFIFSYAWMNWVRQAPGKGLEWVGRIKSKIDGETTEYTTPVKGRFTISRDDSKDTVYLHMKRLKTEDTAVYYCTPGVGANNPYYFDRWGQGVLVTVSS
VL: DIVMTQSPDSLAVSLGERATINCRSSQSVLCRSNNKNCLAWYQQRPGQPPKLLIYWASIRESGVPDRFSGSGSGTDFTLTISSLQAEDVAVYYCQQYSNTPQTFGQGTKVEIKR
binding result [3]: binds
fold increase in binding compared to AT1636 wild-type antibody (ratio of ELISA EC50 values) [4]: 28.6 fold
fold increase in binding compared to AT1636 wild-type antibody (ratio of ELISA EC50 values) [5]: 34.3 fold

B8: AT1636-E (antibody, human IgG1, V domains shown)
VH: EVQLVESGGGLVKPGGSLRLSCAASGFTFSNAWMNWVRQAPGKGLEWVGRIKSKIDGETTEYTTPVKGRFTISRDDSKDTVYLHMKRLKTEDTAVYYCTPGVGANDPYYFDRWGQGVLVTVSS
VL: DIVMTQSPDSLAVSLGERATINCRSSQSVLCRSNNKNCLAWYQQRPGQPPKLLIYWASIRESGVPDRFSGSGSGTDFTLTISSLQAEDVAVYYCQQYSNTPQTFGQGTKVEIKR
notes: also called G63E
fold increase in binding compared to AT1636 wild-type antibody (ratio of ELISA EC50 values) [4]: 0.2 fold
fold increase in binding compared to AT1636 wild-type antibody (ratio of ELISA EC50 values) [5]: 0.5 fold

Reference: patent US20240317880A1 (KLING BIOTHERAPEUTICS B V, published 2024)
